According to patent US20210371863, “HIGH EFFICIENCY APTAMER COMPLEX COMPRISING BRANCHED DNA AND APTAMER, AND USE THEREOF” (POSTECH ACADEMY-INDUSTRY FOUNDATION, published 2021):

Target: VEGF (hVEGF) (Homo sapiens, UniProt P15692-4 P15692-4:27-191)
Experiment: ELISA; remarkable capture efficiency after 4 h at room temperature, PD-10 column filtration; but p70 (FIG. 9) reports OA captured little hVEGF independent of serum incubation time
Conditions: quantified with hVEGF ELISA kit (Komabiotech); chain copies: 2; hairpin
Description: To confirm the hVEGF capture ability of OA, AA, and CA, each prepared sample was mixed with hVEGF solution for 4 hours at room temperature, and the mixed solution was filtered through a PD-10 column (Sephadex G-25, GE Healthcare, Sweden). The amount of non-purified hVEGF was measured by the hVEGF enzyme-linked immunosorbent assay kit (ELISA kit, Komabiotech) according to the manufacturer's guidelines (absorbance measurement at 490 nm by VICTOR3 V™ (Multilabel Counter, Perkin Elmer, Wellesley, Mass., USA)). The hVEGF capture ability of other samples such as OSc, ASc, and CSc was measured in the same way, and the results are shown in FIG. 10.

Chain of VEGF (hVEGF) (P15692 other isoform, or with tags, fused parts or gaps): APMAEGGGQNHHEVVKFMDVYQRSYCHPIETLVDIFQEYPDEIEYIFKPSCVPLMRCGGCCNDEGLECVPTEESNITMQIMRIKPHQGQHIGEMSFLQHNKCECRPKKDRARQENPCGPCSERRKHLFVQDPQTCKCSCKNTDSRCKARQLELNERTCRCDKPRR

B1: OA (oligomeric hVEGF aptamer, Y_Vapt) (ssDNA)
DNA: AGCTTCAGGCGAGGAGCCCACCCCGTCTTCCAGACAAGAGTGCAGGGGTGGCGAGGAGCGGACA
  binding result: binds
